# Assay results published in paper PMC4118869 (PLoS ONE, 2014).
# B1: R1a-A5 (VHH)
# VHH: QVQLVESGGGLVQPGGSLRLSCSASGSAVLFSTYPMSWYRQAPGKQRELVAAVTTDGSTSYADYAKGRFTISRDNAKNTVYLQMNSLKPEDTAVYYCNARDGFFNRYDYWGQGTQVTVSS
# notes: also called R1a-A5 monovalent; source: E. coli WK6 periplasm, purified (Talon IMAC, Superdex 75 SEC)
# B2: R2b-D9 (VHH)
# VHH: QVQLVESGGGLVQPGGSLRLSCLASGSAFSLYTMGWYRQAPGNQRELVAAITSGESTNYADSVKGRFTISRDNAKNTVYLQMNSLKPEDTAVYYCNADPLSTGWGQYSYWGQGTQVTVSS
# notes: source: E. coli WK6 periplasm, purified (Talon IMAC, Superdex 75 SEC)
# B3: R1a-B6 (VHH)
# VHH: QVQLVESGGGLVQPGGSLRLSCAASGSFFSRYRMGWYRQAPGEQRELVASIAYDGSTSYADPVKGRFTISRDNANTVHLQMYSLKPDDTAVYYCNLDPPGILYWGQGTQVTVSS
# notes: also called R1a-B6 monovalent; source: E. coli WK6 periplasm, purified (Talon IMAC, Superdex 75 SEC)
# B4: R2b-E8 (VHH)
# VHH: QVQLVESGGGLVQPGGSLRLSCAASGSFFSRYRMGWYRQAPGEQRELVAGITYDDSTNYAGSVKGRFTISRDNAKNTVHLQMNSLKPEDTAVYYCNLNPPGNLYWGQGTQVTVSS
# notes: as for B2
# B5: R2a-G8 (VHH)
# VHH: QLQLAESGGGLVQAGGSLRLSCAASGSTLNNNAIGWFRQAPGKEREGVSCMNSRDGTTNYADSVKGRFTISRDVAKNTVYLQMNSLKPEDTAVYFCAVKGFAPFLIGCPWGKAEYDYWGQGTQVTVSS
# notes: as for B2
# B6: R2b-D8 (VHH)
# VHH: QVQLVESGGGLVQPGGSLRLSCAASGFTFSWYDVGWYRRAPGKERELVADIASTRGTTNYADSVKGRFTISRDNAKNSVYLQMNSLKPEDTAVYYCNTRRDWRDYWGQGIQVTVSS
# notes: as for B2
# B7: R1a-A5 monovalent (VHH)
# VHH: B1 VHH
# notes: source: E. coli WK6, periplasmic extract, purified (Talon IMAC, Superdex 75 SEC)
# B8: R1a-B6 monovalent (VHH)
# VHH: B3 VHH
# notes: as for B7
# Target: hemagglutinin of A/HongKong/213/2003 (H5N1), in the influenza virus antigen standard (Influenza A virus A/Hong Kong/213/2003 …, UniProt Q4H2E2, strain)
# Assay: ELISA
# Settings: one partner purified
row,Binder,binding result
1,B1,binds
2,B2,binds
3,B3,binds
4,B4,binds
5,B5,binds
6,B6,binds

# Target: hemagglutinin of A/Indonesia/05/2005 (H5N1), in the influenza virus antigen standard (Influenza A virus A/Indonesia/05/2005 …, UniProt A5A5L7, strain)
# Assay: ELISA
# Settings: one partner purified
row,Binder,binding result
1,B1,binds
2,B2,binds
3,B3,binds
4,B4,binds
5,B5,binds
6,B6,binds

# Target: hemagglutinin of A/Singapore/01/57 (H2N2), in the influenza virus antigen standard (Influenza A virus A/Singapore/1/1957 …, UniProt Q67333, strain)
# Assay: ELISA
# Settings: one partner purified
row,Binder,binding result
1,B2,binds
2,B3,binds
3,B6,binds

# Target: hemagglutinin of A/HongKong/1073/99 (H9N2), in the influenza virus antigen standard (Influenza A virus A/Hong Kong/1073/99 …, UniProt Q9ICY5, strain)
# Assay: ELISA
# Settings: one partner purified
row,Binder,binding result
1,B4,binds

# Target: hemagglutinin of A/Brisbane/10/2007 (H3N2), in the influenza virus antigen standard (Influenza A virus A/Brisbane/10/2007 …, UniProt A8W8K8, strain)
# Assay: ELISA
# Settings: one partner purified
row,Binder,binding result
1,B1,no binding
2,B2,no binding
3,B3,no binding
4,B4,no binding
5,B5,no binding
6,B6,no binding

# Target: hemagglutinin of A/Anhui/01/2005 (H5N1), in the influenza virus antigen standard (Influenza A virus A/Anhui/1/2005 (H5N1), UniProt Q1WDM0, strain)
# Assay: ELISA
# Settings: one partner purified
row,Binder,binding result
1,B1,binds
2,B2,binds
3,B3,binds
4,B4,binds
5,B5,binds
6,B6,binds

# Target: phage displayed HA gene fragment L193-K225 (Influenza A virus A/California/07/2009 …, UniProt C3W5X2)
# Assay: ELISA
# Settings: both partners purified
row,Binder,binding result
1,B1,no binding
2,B2,no binding
3,B3,no binding
4,B4,no binding
5,B5,no binding

# Target: phage displayed HA gene fragment P66-I282 (Influenza A virus A/California/07/2009 …, UniProt C3W5X2)
# Assay: ELISA
# Settings: both partners purified
row,Binder,binding result
1,B1,no binding
2,B2,no binding
3,B3,no binding
4,B4,no binding
5,B5,no binding

# Target: phage displayed HA gene fragment D363-G478 (Influenza A virus A/California/07/2009 …, UniProt C3W5X2)
# Assay: ELISA
# Settings: both partners purified
row,Binder,binding result
1,B1,no binding
2,B2,no binding
3,B3,no binding
4,B4,no binding
5,B6,binds

# Target: hemagglutinin of A/California/07/2009 (H1N1)pdm09, in the influenza virus antigen standard (Influenza A virus A/California/07/2009 …, UniProt C3W5X2, strain)
# Assay: ELISA
# Settings: one partner purified
row,Binder,binding result
1,B1,binds
2,B2,binds
3,B3,binds
4,B4,binds
5,B5,binds
6,B6,binds

# Target: recombinant H9-HA, A/HongKong/1073/99 (H9N2) (Influenza A virus A/Hong Kong/1073/99 …, UniProt Q9ICY5, strain)
# Assay: SPR
# Settings: both partners purified
Binder,binding result,Kd
B7,no binding,–
B8,–,4.19 nM

# Target: T1, recombinant H7-HA, A/Netherlands/219/2003 (H7N7) (Influenza A virus …, UniProt Q6VMK1)
# T1 construct: source: bought: Protein Sciences
# Assay: SPR
# Settings: both partners purified
row,Binder,binding result
1,B7,no binding
2,B8,no binding

# Target: T2, recombinant H1-HA (H1N1)pdm09 hemagglutinin (Influenza A virus (H1N1)pdm09; …, UniProt C3W5S1, strain)
# T2 construct: source: bought: Protein Sciences
# Assay: SPR
# Settings: both partners purified
row,Binder,Kd
1,B7,1.56 nM
2,B8,0.36 nM

# Target: T3, recombinant H2-HA, A/Japan/305/57 (H2N2) (Influenza A virus A/Japan/305/1957 …, UniProt P03451, strain)
# T3 construct: source: bought: E-Enzymes (list of antigens) or Protein Sciences (SPR methods)
# Assay: SPR
# Settings: both partners purified
row,Binder,binding result
1,B7,no binding

# Target: recombinant HA1 domain (D18-R344), A/California/06/2009 (H1N1)pdm09 (Influenza A virus A/California/06/2009 …, UniProt C3W5S1, strain)
# Assay: SPR
# Settings: both partners purified
row,Binder,Kd
1,B5,7.66 nM

# Target: T4, recombinant H3-HA, A/Brisbane/10/2007 (H3N2) (Influenza A virus A/Brisbane/10/2007 …, UniProt A8W8K8, strain)
# T4 construct: source: bought: Protein Sciences
# Assay: SPR; data not shown: sdAbs on immobilised recombinant H3-HA and H7-HA
# Settings: both partners purified
row,Binder,binding result
1,B1,no binding
2,B2,no binding
3,B3,no binding
4,B4,no binding
5,B5,no binding
6,B6,no binding

# Target: T5, recombinant H7-HA, A/Netherlands/219/2003 (H7N7) (Influenza A virus …, UniProt Q6VMK1)
# T5 construct: source: bought: Protein Sciences
# Assay: as above
# Settings: both partners purified
row,Binder,binding result
1,B1,no binding
2,B2,no binding
3,B3,no binding
4,B4,no binding
5,B5,no binding
6,B6,no binding

# Target: recombinant H5-HA, A/Vietnam/1203/2004 (H5N1) (Influenza A virus A/Vietnam/1203/2004 …, UniProt Q5EP31, strain)
# Assay: SPR
# Settings: both partners purified
Binder,Kd,koff,kon
B1,0.18 nM,–,–
B2,0.15 nM,2.08e-05 s⁻¹,141000 M⁻¹ s⁻¹
B3,0.52 nM,–,–
B4,0.48 nM,0.000143 s⁻¹,299000 M⁻¹ s⁻¹
B5,9.07 nM,0.00223 s⁻¹,252000 M⁻¹ s⁻¹

# Target: T6, recombinant H2-HA, A/Japan/305/57 (H2N2) (Influenza A virus A/Japan/305/1957 …, UniProt P03451, strain)
# T6 construct: source: bought: E-Enzymes (Protein Sciences in the SPR methods)
# Assay: SPR
# Settings: both partners purified
Binder,binding result,Kd,koff,kon
B1,no binding,–,–,–
B2,–,2.17 nM,0.000163 s⁻¹,75400 M⁻¹ s⁻¹
B4,no binding,–,–,–
B5,–,18.5 nM,0.0142 s⁻¹,764000 M⁻¹ s⁻¹

# Target: recombinant H1-HA (D18-I530), A/California/06/2009 (H1N1)pdm09 (Influenza A virus A/California/06/2009 …, UniProt C3W5S1, strain)
# Assay: SPR
# Settings: both partners purified
Binder,Kd,koff,kon
B1,1.87 nM,–,–
B2,0.18 nM,2.96e-05 s⁻¹,167000 M⁻¹ s⁻¹
B3,0.86 nM,–,–
B4,1.74 nM,0.000628 s⁻¹,361000 M⁻¹ s⁻¹
B5,3.55 nM,0.000798 s⁻¹,225000 M⁻¹ s⁻¹

# Target: recombinant H9-HA, A/HongKong/1073/99 (H9N2) (Influenza A virus A/Hong Kong/1073/99 …, UniProt Q9ICY5, strain)
# Assay: SPR
# Settings: both partners purified
# Remark: another data set of the same source
Binder,binding result,Kd,koff,kon
B1,no binding,–,–,–
B2,–,128 nM,0.0528 s⁻¹,413000 M⁻¹ s⁻¹
B3,–,6.89 nM,–,–
B5,no binding,–,–,–
B6,no binding,–,–,–
